{
  "source": "patent US20100184651A1",
  "about": "“TARGETED FUSION PROTEINS FOR CANCER THERAPY” (Dabur Pharma Limited, priority 2005, published 2010)",
  "key": {"[1]": {"target": "T1, VPAC-1 receptors (Homo sapiens, UniProt P32241)", "T1 construct": "endogenous in cells; host or cells: HT29 colon carcinoma cells", "T1 sequence (P32241 31-457)": "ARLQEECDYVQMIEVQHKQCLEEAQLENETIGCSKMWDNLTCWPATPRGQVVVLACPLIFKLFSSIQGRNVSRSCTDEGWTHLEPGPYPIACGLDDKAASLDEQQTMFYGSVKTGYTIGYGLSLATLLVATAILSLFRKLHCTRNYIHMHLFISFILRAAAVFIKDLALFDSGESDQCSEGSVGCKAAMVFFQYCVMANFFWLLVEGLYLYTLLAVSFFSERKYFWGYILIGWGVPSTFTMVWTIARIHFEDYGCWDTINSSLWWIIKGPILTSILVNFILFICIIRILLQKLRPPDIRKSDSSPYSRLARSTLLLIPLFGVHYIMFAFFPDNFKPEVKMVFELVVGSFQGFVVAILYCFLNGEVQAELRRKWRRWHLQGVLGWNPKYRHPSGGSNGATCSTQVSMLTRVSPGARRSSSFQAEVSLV", "assay": "Receptor targeting: competition with VIP (10-28) antagonist, MTT assay in HT29 cells", "assay_type": "cell-based", "conditions": "24 h", "description": "To further confirm the receptor mediated targeting of the protein, HT29 cells were pre-incubated with varying concentrations of VIP antagonist, VIP (10-28) peptide [Gozes I., et al., Cell Mol. Neurobiol., 1995, 15, 675] for 30 minutes followed by treatment with 10 μM of fusion protein. […] Similar, observation was made when the cells were treated with 5 μM of fusion protein, although this time the receptors were saturated by 25 μM concentration of the antagonist (FIG. 14b).\nCells were seeded in 96-well microplates, followed by the addition of various concentrations of the VIP antagonist VIP (10-28) Fragment for 30 minutes, followed by the addition of fusion protein at a fixed concentration. VIP (10-28) Fragment was allowed to remain in culture wells for whole of the experiment. After a 24-hour incubation, the MTT assay was performed as above."}, "[2]": {"target": "T2, VPAC 1 receptors expressed on A549 cells (Homo sapiens, UniProt P32241)", "T2 construct": "the receptors were overexpressed in the A549 cell line; endogenous in cells; host or cells: A549 human lung carcinoma cells (acetone-fixed on slides)", "T2 sequence (P32241 31-457)": "T1 sequence (P32241 31-457)", "assay": "Immunocytochemical staining for cell surface receptors on A549 cells", "assay_type": "binding", "conditions": "A549 cells pre-treated, then anti-VPAC-1 immunostaining", "description": "Similarly, when, the cells were treated with fusion protein and immuno-stained with anti-BID. […] A similar observation was made when A549 cells were pre-treated with VIP antagonist, VIP (10-28) followed by fusion protein and immunostaining with anti-BID (FIG. 15e).\nCultured (A549 human lung carcinoma) cells were detached with trypsin/EDTA and pelleted by low-speed centrifugation. The cells were resuspended in PBS. Cell suspensions were coated onto poly-L-lysine coated glass slides, dried and then fixed for 10 min in acetone at −20° C. After drying for 2 h, slides were rinsed in PBS and then treated for 5 min with water/H2O2 in order to block endogenous peroxidase. Slides were again rinsed again in PBS and treated with normal rabbit and goat serum to block background staining. Slides were then incubated with antagonist, VIP(10-28) and/or fusion protein for 1 hr each. Slides were again washed with PBS and incubated with rabbit-anti-BID antibody (dilution 1:1000) or goat anti-VPAC 1 antibody (dilution 1:1000) for 1 h. Slides were again washed in PBS and incubated with […] IgG peroxidase labelled antibodies for anti-BID and anti-VPAC 1 primary antibodies respectively, for 1 h followed by addition of the 3,3′-diaminobenzidine-tetrachloride (DAB) substrate and hydrogen peroxide in PBS. […]"}},
  "data": [
    {"substance": "VIP (10-28) peptide: VIP antagonist, VIP (10-28) peptide (YTRLRKQMAVKKYLNSILN)", "values": [
      {"measurement": "concentration of antagonist giving complete loss of cytotoxicity of fusion protein", "setting": "[1]; HT29 pre-incubated 30 minutes with antagonist, then 10 μM of fusion protein", "value": 100, "unit": "µM"},
      {"measurement": "concentration of antagonist at which the receptors were saturated (loss of cytotoxicity)", "setting": "[1]; HT29 pre-incubated with antagonist, then 5 μM of fusion protein", "value": 25, "unit": "µM"},
      {"measurement": "availability of VPAC-1 receptors to anti VPAC-1 after pre-treatment", "setting": "[2]", "value": "significant loss in the immunostained cell population"}
    ]}
  ]
}
